# Assay results taken from US20140357845A1.
# B1: CR6261 (antibody, V domains shown)
# VH: EVQLVESGAEVKKPGSSVKVSCKASGGPFRSYAISWVRQAPGQGPEWMGGIIPIFGTTKYAPKFQGRVTITADDFAGTVYMELSSLRSEDTAMYYCAKHMGYQVRETMDVWGKGTTVTVSS
# VL: QSVLTQPPSVSAAPGQKVTISCSGSSSNIGNDYVSWYQQLPGTAPKLLIYDNNKRPSGIPDRFSGSKSGTSATLGITGLQTGDEANYYCATWDRRPTAYVVFGGGTKLTVLG
# Assays:
# [1] = biological target: s-H1 Full-length R343Q (A/Brisbane/59/2007), trimeric form (influenza A virus H1N1), B4URD6; conditions: remark: other sources report otherwise
# [2] = biological target: s-H1 Full-length R343Q (A/Brisbane/59/2007), monomeric form (influenza A virus H1N1), B4URD6; conditions: remark: other sources report otherwise
binder,measurement,setting,value
B1,BLI response,[1],1.3 nm
same,BLI response,[2],0.9 nm
